Reference: US20240400703A1 (Genmab, published 2024)
Substitutions are numbered along the chain they refer to. In names and notes the source's numbering stands.

Tests used:
[1] = target: T1, His-tagged human recombinant FcγRIIb (Sino Biological, cat. no. 10259-H27H-B) (human, UniProt P31994 43-217); assay: SPR, His-tagged FcγR captured on anti-His chip, antibody injected
T1 construct: also called FcγRII2b [sic]
T1 sequence (looked up): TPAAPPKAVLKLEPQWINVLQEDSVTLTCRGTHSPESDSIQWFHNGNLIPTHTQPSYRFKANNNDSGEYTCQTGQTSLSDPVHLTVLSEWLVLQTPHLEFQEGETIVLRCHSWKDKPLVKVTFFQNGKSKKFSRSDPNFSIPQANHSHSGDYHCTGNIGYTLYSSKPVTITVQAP
Protocol: (§1) Biacore Series S Sensor Chips CM5 (Cytiva, cat. no. 29104988) were covalently coated with anti-His antibody using amine-coupling and His capture kits (Cytiva, cat. no. BR100050 and cat. no. 29234602) according to the manufacturer's instructions. […] After three start-up cycles of HBS-EP+ buffer, antibody samples were injected for 12 cycles per sample to generate binding curves using antibody concentration ranges of 0 to 3,000 nM for FcγRIa and 0 to 10,000 nM for the other FcγRs.
(§2) Dissociation from the anti-His-coated surface was performed by regeneration of the surface using 10 mM Glycine-HCl pH 1.5 (Cytiva, cat. no. BR100354).

[2] = target: His-tagged human recombinant FcγRIa (Sino Biological, cat. no. 10256-H08S-B) (human, UniProt P12314 16-288); assay: as above
Protocol: as §1, §2

[3] = target: T2, His-tagged human recombinant FcγRIIa 167-Arg (Sino Biological, cat. no. 10374-H27H) (human, UniProt P12318 34-218); assay: as above
T2 construct: also called FcγRIIa[R]
T2 sequence (looked up): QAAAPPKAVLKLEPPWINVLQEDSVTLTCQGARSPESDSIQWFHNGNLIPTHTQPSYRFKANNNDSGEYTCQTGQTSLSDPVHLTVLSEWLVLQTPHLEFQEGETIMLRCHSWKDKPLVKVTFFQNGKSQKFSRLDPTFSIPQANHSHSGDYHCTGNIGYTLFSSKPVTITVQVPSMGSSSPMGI
Protocol: as §1, §2

[4] = target: T3, His-tagged human recombinant FcγRIIIa 176-Phe (Sino Biological, cat. no. 10389-H27H) (human, UniProt P08637 17-208); assay: as above
T3 construct: also called FcγRIIIa[F]
Protocol: as §1, §2

[5] = target: T4, His-tagged human recombinant FcγRIIa 167-His (Sino Biological, cat. no. 10374-H08H1) (human, UniProt P12318 34-218); assay: as above
T4 construct: also called FcγRIIa[H]
T4 sequence (looked up): T2 sequence (looked up) with R134H
Protocol: as §1, §2

[6] = target: T5, His-tagged human recombinant FcγRIIIa 176-Val (Sino Biological, cat. no. 10389-H27H1-B) (human, UniProt P08637 17-208); assay: as above
T5 construct: also called FcγRIIIa[V]
Protocol: as §1, §2

[7] = target: T6, human OX40 with mouse CRD2 (human with mouse CRD2, UniProt P43489 29-277); assay: flow cytometry, transfected ExpiCHO-S cells, gMFI (PE)
T6 construct: on ExpiCHO-S cells; also called OX40-CRD2mm; Shuffle 2
T6 chain: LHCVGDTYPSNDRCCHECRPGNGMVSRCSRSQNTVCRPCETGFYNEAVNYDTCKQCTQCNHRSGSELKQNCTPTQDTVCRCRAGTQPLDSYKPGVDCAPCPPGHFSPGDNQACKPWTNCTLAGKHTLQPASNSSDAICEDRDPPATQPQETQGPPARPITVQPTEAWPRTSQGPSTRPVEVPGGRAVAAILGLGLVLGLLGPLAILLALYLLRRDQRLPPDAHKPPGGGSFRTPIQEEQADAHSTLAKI

[8] = target: T7, human OX40 expressed on cells (human, UniProt P43489 29-277); assay: flow cytometry, OX40-transfected HEK293F cells, gMFI (PE)
T7 construct: also called CD134; TNFRSF4
T7 sequence: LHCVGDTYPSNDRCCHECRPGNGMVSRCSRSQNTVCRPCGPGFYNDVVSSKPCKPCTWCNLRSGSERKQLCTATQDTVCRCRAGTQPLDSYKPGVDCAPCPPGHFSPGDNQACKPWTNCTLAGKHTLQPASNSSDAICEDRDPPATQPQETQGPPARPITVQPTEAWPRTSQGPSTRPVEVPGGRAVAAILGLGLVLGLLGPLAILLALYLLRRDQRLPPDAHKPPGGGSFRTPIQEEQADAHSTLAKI
Protocol: (§3) Transfected cells were seeded in 96-well plates (30,000 cells/well; ThermoFisher, cat. no. 163320) for sequential incubations, with washing steps in between using fluorescence-activated cell sorting (FACS) buffer 1 (phosphate buffered saline [PBS; Lonza, cat. no. BE17-517Q] supplemented with 0.1% bovine serum albumin [BSA; Roche, cat. no. 10735086001] and 0.02% sodium azide [NaN₃; Bio-World, cat. no. 41920044-3]) supplemented with 2 mM ethylenediaminetetraacetic acid (EDTA; Sigma-Aldrich, cat. no. 03690). […] Cells were then washed using EDTA-supplemented FACS buffer 1, resuspended in a 30 μL solution of viability marker ToPro-3 (Invitrogen, cat. no. T3605, diluted 1:10,000) in EDTA-supplemented FACS buffer 1, and subsequently analyzed on an iQue® 3 flow cytometer (Satorius). Data were analyzed using FlowJo software and were visualized using GraphPad Prism.

[9] = target: T8, cynomolgus monkey OX40 expressed on HEK293F cells (cynomolgus monkey (Macaca fascicularis), UniProt P43489 29-277 (human entry)); assay: as above
T8 construct: full-length entry
T8 chain: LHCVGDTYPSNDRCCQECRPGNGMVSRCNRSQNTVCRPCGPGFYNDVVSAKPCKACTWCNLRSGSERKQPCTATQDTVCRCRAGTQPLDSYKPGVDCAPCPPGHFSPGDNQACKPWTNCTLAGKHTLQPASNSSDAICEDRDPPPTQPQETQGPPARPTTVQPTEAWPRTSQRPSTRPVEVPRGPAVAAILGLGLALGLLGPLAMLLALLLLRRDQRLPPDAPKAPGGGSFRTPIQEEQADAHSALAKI
Protocol: as §3

[10] = target: T9, human OX40 with mouse CRD3 (human with mouse CRD3, UniProt P43489 29-277); assay: flow cytometry, transfected ExpiCHO-S cells, gMFI (PE)
T9 construct: on ExpiCHO-S cells; also called OX40-CRD3mm; Shuffle 3
T9 chain: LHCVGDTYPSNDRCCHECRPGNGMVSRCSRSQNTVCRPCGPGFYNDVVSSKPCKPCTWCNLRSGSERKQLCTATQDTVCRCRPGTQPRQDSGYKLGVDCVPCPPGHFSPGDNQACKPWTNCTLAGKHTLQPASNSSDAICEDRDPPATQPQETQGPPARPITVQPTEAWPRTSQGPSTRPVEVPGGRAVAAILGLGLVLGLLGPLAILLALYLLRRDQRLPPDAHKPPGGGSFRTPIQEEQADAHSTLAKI

[11] = target: T10, human OX40 with mouse CRD1 (human with mouse CRD1, UniProt P43489 29-277); assay: as above
T10 construct: on ExpiCHO-S cells; also called OX40-CRD1mm; Shuffle 1
T10 chain: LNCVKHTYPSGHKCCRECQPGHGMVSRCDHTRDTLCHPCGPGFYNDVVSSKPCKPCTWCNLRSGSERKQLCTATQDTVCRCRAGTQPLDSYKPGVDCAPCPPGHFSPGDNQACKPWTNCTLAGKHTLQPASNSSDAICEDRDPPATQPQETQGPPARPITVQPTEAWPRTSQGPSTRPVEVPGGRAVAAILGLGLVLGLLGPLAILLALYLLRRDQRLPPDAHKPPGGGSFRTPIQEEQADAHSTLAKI

[12] = target: T11, human OX40 with mouse CRD4 (human with mouse CRD4, UniProt P43489 29-277); assay: as above
T11 construct: on ExpiCHO-S cells; also called OX40-CRD4mm; Shuffle 4
T11 chain: T7 sequence with D109N, A122S, H125Q, L127R, Q128H, N132D, S134L, I137V
Protocol: The four shuffle constructs, as well as wild-type human and mouse OX40 were transiently expressed on ExpiCHO-S cells using the ExpiFectamine™ CHO Transfection Kit (ThermoFisher, cat. no. A29131), according to the manufacturer's protocol. […] Next, cells were washed twice in FACS buffer 1, were resuspended in a 30 μL solution of viability marker ToPro-3 (Invitrogen, cat. no. T3605, diluted 1:10,000) in FACS buffer 1 supplemented with 2 mM EDTA, and were analyzed on an iQue Screener Plus (Intellicyt Corporation, USA). Data were analyzed using FlowJo software and visualized using GraphPad Prism.

[13] = target: T12, human FcγRIa expressed on cells (human, UniProt P12314 16-374); assay: flow cytometry, FcγRIa-expressing human monocyte-derived M2c-like macrophages, 15 min
T12 construct: whole, on cells; also called FcγR1a; CD64

[14] = target: T13, mouse OX40 expressed on ExpiCHO-S cells (mouse, UniProt P47741 20-272); assay: flow cytometry, transfected ExpiCHO-S cells, gMFI (PE)
T13 construct: full-length entry; also called OX40mm; wild-type mouse OX40
T13 sequence: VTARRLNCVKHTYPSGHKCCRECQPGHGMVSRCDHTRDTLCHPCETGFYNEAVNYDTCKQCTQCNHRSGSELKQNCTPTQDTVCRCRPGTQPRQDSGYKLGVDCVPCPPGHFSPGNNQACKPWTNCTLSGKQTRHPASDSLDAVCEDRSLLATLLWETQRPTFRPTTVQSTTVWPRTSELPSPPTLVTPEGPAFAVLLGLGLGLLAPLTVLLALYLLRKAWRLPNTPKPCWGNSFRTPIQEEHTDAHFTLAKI

[15] = target: T7, human OX40 expressed on cells; assay: flow cytometry, human T cells activated 2 days with anti-CD3/CD28 beads, 2 µg/mL sOX40L, anti-mouse Fc detection
Protocol: Stimulated PBMCs were pelleted, resuspended in FACS buffer 2 (DPBS with 2% heat-inactivated FBS [Sigma-Aldrich, cat. no. F7524] and 2 mM EDTA [Sigma-Aldrich, cat. no. 03690]), and seeded (100,000 cells/well) in round-bottom 96-well plates (VWR International GmbH, cat. no. 734-197). […] Next, cells were washed twice in FACS buffer, and incubated with 30 μL of the antibody panel described in Table 11 diluted in FACS buffer 2 containing 1:1,500 Fixable Viability Stain eFluor 780 at 4° C. for 20 min, protected from light. The cells were subsequently washed twice with 120-150 μL FACS buffer 2 and measured on a BD FACSCelesta flow cytometer using a BD High Throughput sampler and subsequent analysis was done using FlowJo software.

T12 sequence (P12314 16-374): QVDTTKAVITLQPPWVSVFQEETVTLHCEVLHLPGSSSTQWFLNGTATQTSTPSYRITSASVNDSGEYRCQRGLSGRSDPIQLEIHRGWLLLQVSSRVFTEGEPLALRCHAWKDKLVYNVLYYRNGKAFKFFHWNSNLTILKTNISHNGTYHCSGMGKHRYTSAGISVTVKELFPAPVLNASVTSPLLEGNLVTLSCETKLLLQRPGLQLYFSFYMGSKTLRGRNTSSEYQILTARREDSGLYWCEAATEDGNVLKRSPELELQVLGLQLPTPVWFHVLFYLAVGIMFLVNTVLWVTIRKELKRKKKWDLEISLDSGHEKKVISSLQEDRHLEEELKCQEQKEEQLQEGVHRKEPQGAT
T5 sequence (P08637 17-208 F176V limits assumed): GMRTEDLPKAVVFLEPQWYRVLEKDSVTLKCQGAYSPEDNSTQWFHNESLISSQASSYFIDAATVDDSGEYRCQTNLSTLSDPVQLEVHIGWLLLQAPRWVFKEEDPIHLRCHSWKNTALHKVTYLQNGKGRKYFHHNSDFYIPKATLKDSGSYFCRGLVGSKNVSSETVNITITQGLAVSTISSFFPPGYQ
T3 sequence (P08637 17-208 limits assumed): as the sequence (P08637 17-208 F176V limits assumed) above, with V160F counted along it
Chain of His-tagged human recombinant FcγRIa (Sino Biological, cat. no. 10256-H08S-B) (P12314 16-288 limits assumed, stated change not applied): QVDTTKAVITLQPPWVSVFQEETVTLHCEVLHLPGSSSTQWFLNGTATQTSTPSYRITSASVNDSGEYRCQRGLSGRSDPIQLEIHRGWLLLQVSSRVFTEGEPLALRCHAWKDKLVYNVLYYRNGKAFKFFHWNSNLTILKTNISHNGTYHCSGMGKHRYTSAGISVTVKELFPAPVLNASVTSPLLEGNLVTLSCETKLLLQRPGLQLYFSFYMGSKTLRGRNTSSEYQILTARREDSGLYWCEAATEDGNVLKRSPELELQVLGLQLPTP

B1: IgG1-CD134-003-HC6LC2-E345R (antibody)
heavy: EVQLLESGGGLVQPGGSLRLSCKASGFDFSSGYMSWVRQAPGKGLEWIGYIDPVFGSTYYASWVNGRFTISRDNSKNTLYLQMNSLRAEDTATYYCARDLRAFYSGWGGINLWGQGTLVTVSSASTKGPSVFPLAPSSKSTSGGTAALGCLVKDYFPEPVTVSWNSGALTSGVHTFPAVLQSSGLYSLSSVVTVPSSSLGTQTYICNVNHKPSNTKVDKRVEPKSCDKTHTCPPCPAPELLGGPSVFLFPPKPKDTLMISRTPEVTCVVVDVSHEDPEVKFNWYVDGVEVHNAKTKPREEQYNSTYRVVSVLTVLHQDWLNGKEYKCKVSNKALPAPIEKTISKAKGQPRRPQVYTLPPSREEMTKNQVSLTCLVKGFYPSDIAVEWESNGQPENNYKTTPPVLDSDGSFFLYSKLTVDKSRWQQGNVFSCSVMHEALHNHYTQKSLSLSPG
light: AAVLTQSPSSLSASVGDRVTITCQSSQIVVNNNFLSWYQQKPGKAPKLLIYDASNLASGVPDRFSGSGSGTDFTFTISSLQPEDIATYYCLGGYDDDAENAFGGGTKVEIKRTVAAPSVFIFPPSDEQLKSGTASVVCLLNNFYPREAKVQWKVDNALQSGNSQESVTEQDSKDSTYSLSSTLTLSKADYEKHKVYACEVTHQGLSSPVTKSFNRGEC
notes: also called variant of IgG1-CD134-003-HC6LC2-RR without Fc-inertness mutation; copies: 2 + 2
Which results are given for B1?
binding result [1]: binds; binding result [2]: binds; binding result [3]: binds; binding result [4]: binds; binding result [5]: binds; binding result [6]: binds

B2: IgG1-b12-RR (antibody)
heavy: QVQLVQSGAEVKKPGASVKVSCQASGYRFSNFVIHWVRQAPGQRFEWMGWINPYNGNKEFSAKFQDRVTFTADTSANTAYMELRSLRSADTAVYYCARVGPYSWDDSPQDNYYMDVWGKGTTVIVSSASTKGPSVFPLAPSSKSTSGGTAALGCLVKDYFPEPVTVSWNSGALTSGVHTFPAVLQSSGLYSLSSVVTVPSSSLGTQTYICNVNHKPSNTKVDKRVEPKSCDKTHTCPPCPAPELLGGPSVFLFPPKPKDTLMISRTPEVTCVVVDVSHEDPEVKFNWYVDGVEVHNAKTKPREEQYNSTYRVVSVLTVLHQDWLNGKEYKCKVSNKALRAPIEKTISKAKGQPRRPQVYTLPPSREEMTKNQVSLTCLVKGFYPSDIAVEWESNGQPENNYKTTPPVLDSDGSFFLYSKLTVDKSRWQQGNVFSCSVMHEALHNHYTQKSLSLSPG
VL: EIVLTQSPGTLSLSPGERATFSCRSSHSIRSRRVAWYQHKPGQAPRLVIHGVSNRASGISDRFSGSGSGTDFTLTITRVEPEDFALYYCQVYGASSYTFGQGTKLERK
notes: also called IgG1-b12-P329R-E345R
Does B2 bind [7]?
Result: no binding (tested: 50 µg/mL)

Does B2 bind [8]?
Result: no binding (tested: 50 µg/mL)

Does B2 bind [9]?
Result: no binding (tested: 50 µg/mL)

Does B2 bind [10]?
Result: no binding (tested: 50 µg/mL)

Does B2 bind [11]?
Result: no binding (tested: 50 µg/mL)

Does B2 bind [12]?
Result: no binding (tested: 50 µg/mL)

Does B2 bind [13]?
Result: no binding (tested: 10 µg/mL)

Does B2 bind [14]?
Result: no binding (tested: 50 µg/mL)

B3: murine Fc-tagged human sOX40L (Sino Biological, cat. no. 13127-H04H) (Fc fusion, UniProt P23510 51-183, looked up)
chain: QVSHRYPRIQSIKVQFTEYKKEKGFILTSQKEDEIMKVQNNSVIINCDGFYLISLKGYFSQEVNISLHYQKDEEPLFQLKKVRSVNSLMVASLTYKDKVYLNVTTDNTSLDDFHVNGGELILIHQNPGEFCVL
notes: bought protein; also called soluble OX40L; not shown: murine Fc tag
Does B3 bind [15]?
Result: binds
